# Values joined by “and” are separate entries in the source; they are usually repeats but may differ in a detail not shown here. Identical values can stand only once.
# Experiments:
# [1] = molecular target: CD40/Fc fusion protein (extracellular domain of human CD40 fused to the Fc domain of human IgG1) (human) (UniProt P25942); experiment: BIAcore SPR, CD40/Fc captured by goat anti-human IgG1 Fc; experiment 2
# [2] = molecular target: CD40/Fc fusion protein (extracellular domain of human CD40 fused to the Fc domain of human IgG1) (human) (UniProt P25942); experiment: BIAcore SPR, CD40/Fc captured by goat anti-human IgG1 Fc; K1 (site 1); experiment 1
# [3] = molecular target: CD40/Fc fusion protein (extracellular domain of human CD40 fused to the Fc domain of human IgG1) (human) (UniProt P25942); experiment: BIAcore SPR, CD40/Fc captured by goat anti-human IgG1 Fc; K2 (site 2); experiment 1
# [4] = molecular target: CD40/Fc fusion protein (extracellular domain of human CD40 fused to the Fc domain of human IgG1) (human) (UniProt P25942); experiment: BIAcore SPR, CD40/Fc captured by goat anti-human IgG1 Fc; experiment 1
# [5] = molecular target: CD40/Fc fusion protein (extracellular domain of human CD40 fused to the Fc domain of human IgG1) (human) (UniProt P25942); experiment: BIAcore SPR, CD40/Fc captured by goat anti-human IgG1 Fc; K2 (site 2); experiment 2
# [6] = molecular target: CD40/Fc fusion protein (extracellular domain of human CD40 fused to the Fc domain of human IgG1) (human) (UniProt P25942); experiment: BIAcore SPR, CD40/Fc captured by goat anti-human IgG1 Fc; K1 (site 1); experiment 2
# [7] = molecular target: CD40/Fc fusion protein (extracellular domain of human CD40 fused to the Fc domain of human IgG1) (human) (UniProt P25942); experiment: biosensor (BIAcore) assay substantially as in Example 3, CD40/Fc captured
# [8] = molecular target: CD40/Fc fusion protein (extracellular domain of human CD40 fused to the Fc domain of human IgG1) (human) (UniProt P25942); experiment: BIAcore SPR substantially as in Example 3; K1; average of two preparations
# CD40 on B cells = CD40 on B cells (UniProt P25942); experiment: cell-based or functional assay
# [9] = molecular target: CD40/Fc fusion protein (extracellular domain of human CD40 fused to the Fc domain of human IgG1) (human) (UniProt P25942); experiment: BIAcore SPR substantially as in Example 3; K2; average of two preparations
Site2 (mol/mol CD40/Fc) (mol/mol CD40/Fc) [1],Ka [2] [M⁻¹],Ka [3] [M⁻¹],Site 1 (mol/mol CD40/Fc) (mol/mol CD40/Fc) [4],Site2 (mol/mol CD40/Fc) (mol/mol CD40/Fc) [4],Molecule,other results
1.2 and 1.27,,,,,monomeric human CD40L (comprising solely the portion of the extracellular domain most homologous to TNF) (from UniProt P27548 112-260) (ligand),
,1.6e+11,7e+08,0.013,0.049,dimeric human CD40L (CD40L/Fc) (from UniProt P27548 47-260) (Fc fusion),
,6e+10,1.6e+08,0.02,0.44,"trimeric murine CD40L (oligomerizing zipper, Flag octapeptide, extracellular region of murine CD40L) (from UniProt P27548 47-260) (ligand)",
0.41,5e+09,7.5e+07,0.04,0.68,"trimeric human CD40L (CD40L/""leucine zipper""): oligomerizing zipper followed by the extracellular region of human CD40L, amino acids 51-261 (ligand)",Ka [5]: 2.6e+07 M⁻¹; Site 1 (mol/mol CD40/Fc) (mol/mol CD40/Fc) [1]: 0.26; Ka [6]: 6.6e+08 M⁻¹
,,,,,"wild type CD40 ligand/zipper domain fusion protein (WT) expressed in yeast (ligand, part only; not given: leucine zipper sequence, part only) chain, part: MQRGDEDPQIAAHVVSEANSNAASVLQWAKKGYYTMKSNLVMLENGKQLTVKREGLYYVYTQVTFCSNREPSSQRPFIVGLWLKPSSGSERILLKAANTHSSSQLCEQQSVHLGGVFELQAGASVFVNVTEASQVIHRVGFSSFGLLKL","Ka [7]: 7.7e+07 M⁻¹; Ka [8]: 7.4e+08 M⁻¹; B-cell proliferation (U/µg), Experiment 1 (CD40 on B cells): 77 U/µg; B-cell proliferation (U/µg), Experiment 2 (CD40 on B cells): 15 U/µg; Ka [9]: 3e+07 M⁻¹"
